Experimental data from patent publication US20200385445A1 (COMPUGEN, published 2020).

T1: human PVRIG (Poliovirus Receptor Related Immunoglobulin Domain Containing Protein), full length on cells (human, UniProt Q6DKI7 41-326)
T1 construct: whole, on cells; Over-expressed on HEK293 (some pools flag-tagged) or endogenous on Jurkat, CA46, T cells, NK cells, TILs; also called hPVRIG; HEK hPVRIG
T1 sequence (looked up): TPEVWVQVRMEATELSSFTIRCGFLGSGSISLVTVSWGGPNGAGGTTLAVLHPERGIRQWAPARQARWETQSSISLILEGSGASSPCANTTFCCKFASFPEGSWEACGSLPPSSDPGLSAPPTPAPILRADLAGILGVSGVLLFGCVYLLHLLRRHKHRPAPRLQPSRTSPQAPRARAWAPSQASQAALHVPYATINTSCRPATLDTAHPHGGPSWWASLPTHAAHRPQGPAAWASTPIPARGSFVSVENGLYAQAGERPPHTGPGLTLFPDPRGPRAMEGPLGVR

B1: CPA.7.010 human IgG1 (antibody, V domains shown)
VH: EVQLVESGGGLVQPGRSLRLSCAASGFTFSSYAMHWVRQAPGKGLEWVAVISYDGSNKYYADSVKGRFTISRDNSKNTLYLQMNSLRAEDTAVYYCASSPIGYSYGYWGGMDVWGQGTTVTVSS
VL: QAVLTQPASLSASPGASASLTCTLRSGIDVRTNKIFWYQVKPGSPPQHLLTFQSDSDKQQGSGVPSRFSGSKDASANAGILIISGLQSEDEADYYCLIWHTSGWVFGGGTQLTVLG
B2: CPA.7.018 human IgG1 (antibody, V domains shown)
VH: EVQLVQSGAEVKKPGASVKVSCKVSGYTLTELSMHWVRQAPGKGLEWMGGFDPEDGETIYAQKFQGRVTMTEDTSTDTAYMELSSLRSEDTAVYYCATEVPMVRGARRYYYYMDVWGKGTTVTVSS
VL: DVVMTQSPLFLAVTPGEPASISCRSSQTLLYINENNYLDWYVQKPGQSPQLLIYLGSTRASGVPDRFSGGGSGTDFTLTISRVEAEDVGLYYCMQGLQTPPTFGQGTRLEIKR
B3: CPA.7.034 human IgG1 (antibody, V domains shown)
VH: EVQLVQSGAEVKKPGASVKVSCKVSGYTLTELSMHWVRQAPGKGLEWMGGFDPEDGETIYAQKFQGRVTMTEDTSTDTAYMELSSLRSEDTAVYYCATEDPGPVAGPYYYYGMDVWGQGTTVTVSS
VL: DVVMTQSPLVLPVTPGEPASISCRSSQSLLYINGYHYLDWYVQRPGQSPQLLIFLGSTRASGVPDRFSGSGSGTDFTLEISKVEAEDVGIYFCMQALQTPPTFGGGTKVEIKR
notes: also called CPA.7.34
B4: CPA.7.017 human IgG1 (antibody, V domains shown)
VH: QVQLVQSGAEVKKPGSSVKVSCKASGGTFNNYGISWVRQAPGKGLEWMGQIIPLFGTTKYAQKFQGRVTIAADEPTSTAYMELGSLRSEDTAIYYCARDRMAADGMAVFDYWGQGTLVTVSS
VL: QSVLTQPPSVSGTPGQKVIISCSGSSSNIGRHFVFWYQQLPGTAPKLLIYKNDERPSGVPDRFSGSKSGTSASLAVSGLRSEDEADYYCSSWDAALNGVVFGGGTKLTVLG
B5: CPA.7.019 human IgG1 (antibody, V domains shown)
VH: QVQLQESGPGLVKSSETLSLTCSVSGGSISNSNYYWGWIRQPPGKGLEWIGGIYYSGSTYYNPSLESRVTISEDTSKNQISLKLSSVTAADTAVYYCARGAWELSLGDWFDPWGPGTLVTVSS
VL: QSVLTQPPSVSGAPGQRVTISCTGSSSNIGAGYDIQWYQQLPGTAPKLLIYGNNNRPSGVPDRFSGSRSGTSASLAITGLQAEDEADYYCQSYDSSLSVYVVFGGGTQLTVLG
B6: CPA.7.015 human IgG1 (antibody, V domains shown)
VH: QITLKESGGGVVQPGGSLRLSCAASGFTFSSYGMHWVRQAPGKGLEWVAFIRYDGSNKYYADSVKGRFTISRDNSKNTLYLQMNSLRAEDTAVYYCARDLFDFWWDGMDVWGQGTTVTVSS
VL: EIVLTQSPGTLSLSPGEKATLSCRVSQSVSSMYLAWYQQKPGQAPRLLIYGASYRATGIPDRFSGSGSGTDFNLTISRLEPEDFAVYYCQQYVSSPMYTFGLGTKLEIKR
B7: CPA.7.004 human IgG1 (antibody, V domains shown)
VH: EVQLVQSGAEVKKPGASVKVSCKVSGYTLTELSMHWVRQAPGKGLEWMGGFDPEDGETIYAQKFQGRVTMTEDTSTDTAYMELSSLRSEDTAVYYCATVSRVRGVINYYYYMDVWGKGTTVTVSS
VL: DVVMTQSPLSLPVTPGEPASISCRSSQSLLYRNGNNYLDWYLQKPGQSPQLLIYLGSNRASGVPDRFSGSGSGTDFTLKISRVEAEDVGVYYCMQALQTPPTFGGGTKLEIKR
B8: CPA.7.009 human IgG1 (antibody, V domains shown)
VH: EVQLVQSGAEVKKPGASVKVSCKVSGYTLTELSMHWVRQAPGKGLEWMGGFDPEDGETIYAQKFQGRVTMTEDTSTDTAYMELSSLRSEDTAVYYCATAKPGIAVAGQNYYYYYMDVWGKGTTVTVSS
VL: DVVMTQSPLSLPVTPGEPASISCRSSQSLLYRNGNNYLDWYLQKPGQSPQLLIYLGSNRASGVPDRFSGSGSGTDFTLKISRVEAEDVGVYYCMQALQTPPTFGGGTKLEIKR
B9: CPA.7.022 human IgG1 (antibody, V domains shown)
VH: EVQLVQSGAEVKKPGASVKVSCKVSGYTLTELSMHWVRQAPGKGLEWMGGFDPEDGETIYAQKFQGRVTMTEDTSTDTAYMELSSLRSEDTAVYYCATGVPAAIGVYYYYYYMDVWGKGTTVTVSS
VL: DVVMTQSPLSLPVTPGEPASISCRSSQSLLYSNGYNYLDWYLQKPGQSPQLLISLGSNRASGVPDRFSGSGSGTDFTLKISRVEAEDVGVYYCMQALQSPVTFGGGTKVEIKR
B10: CPA.7.024 human IgG1 (antibody, V domains shown)
VH: EVQLVQSGAEVKKPGSSVKVSCKASGGTFSSYAISWVRQAPGQGLEWMGGIIPIFGTANYAQKFQGRVTITADESTSTAYMELSSLRSEDTAVYYCARDAYYYDSSGYYNPDAFDIWGQGTMVTVSS
VL: DVVMTQSPLSLPVTPGEPASISCRSSQSLLHSNGYNYLDWYLQKPGQSPQLLIYLGSSRASGVPDRFSGSVSGTDFTLKISRVEAEDVGVYYCMQGLQTPRTFGRGTKLEIKR
B11: CPA.7.014 human IgG1 (antibody, V domains shown)
VH: EVQLVQSGAEVKKPGASVKVSCKVSGYTLTELSMHWVRQAPGKGLEWMGGFDPEDGETIYAQKFQGRVTMTEDTSTDTAYMELSSLRSEDTAVYYCATGVTTYYYYGMDVWGQGTTVTVSS
VL: DVVMTQSPLSLPVTPGEPASISCRSSQSLLYSNGNNFLDWYLQKPGQSPRLLISLGSNRASGVPDRFSGSGSGTDFTLKISRVEAEDVGIYYCMQALQTPPTFGQGTKVEIKR
B12: CPA.7.023 human IgG1 (antibody, V domains shown)
VH: EVQLVQSGAEVKKPGASVKVSCKVSGYTLTELSMHWVRQAPGKGLEWMGGFDPEDGETIYAQKFQGRVTMTEDTSTDTAYMELSSLRSEDTAVYYCATDSRDGPAARGGYYYYMDVWGQGTTVTVSS
VL: DVVMTQSPLSLPVTLGQPASISCRSSQSLLYINGYNYLDWYLQKPGQSPQLLIYLGSNRASGVPDRFSGSGSGTDFTLKISRVEAEDVGVYYCMQALQTPPTFGQGTKVEIKR
B13: CPA.7.011 human IgG1 (antibody, V domains shown)
VH: EVQLVQSGAEVKKPGASVKVSCKVSGYTLTELSMHWVRQAPGKGLEWMGGFDPEDGETIYAQKFQGRVTMTEDTSTDTAYMELSSLRSEDTAVYYCATGPAAAGVGYYYYMDVWGKGTTVTVSS
VL: DVVMTQSPLSLPVTPGEPASISCRSSQSLLYRNGYNYLDWYLQKPGQSPQLLIYLGSNRASGVPDRFSGSGSGTDFTLKISRVEAEDVGVYYCMQALQTPPTFGQGTKVEIKR
B14: CPA.7.047 human IgG1 (antibody, V domains shown)
VH: EVQLVQSGAEVKKPGASVKVSCKVSGYTLTELSMHWVRQAPGKGLEWMGGFDPEDGETIYAQKFQGRVTMTEDTSTDTAYMELSSLRSEDTAVYYCATAFPEATISYYYYMDVWGKGTTVTVSS
VL: DVVMTQSPLSLPVTPGEPASISCRSSQSLLYRNGYNYLDWYLQKPGQSPQLLIYWGSYRASGVPDRFSGSGSGTDFTLKISRVEAEDVGVYYCMQAVQNPPTFGQGTKVEIKR
B15: CPA.7.040 human IgG1 (antibody, V domains shown)
VH: EVQLVQSGAEVKKPGASVKVSCKVSGYTLTELSMHWVRQAPGKGLEWMGGFDPEDGETIYAQKFQGRVTMTEDTSTDTAYMELSSLRSEDTAVYYCATGVPAAIGVYYYYYYMDVWGKGTTVTVSS
VL: DVVMTQSPLSLPVTPGEPASISCRSSQSLLYRNGYNYLDWYLQKPGQSPQLLIYWGSYRASGVPDRFSGSGSGTDFTLKISRVEAEDVGVYYCMQAVQNPPTFGQGTKVDIKR
B16: CPA.7.016 human IgG1 (antibody, V domains shown)
VH: EVQLVQSGAEVKKPGSSVKVSCKTSGGTFSSSAISWVRQAPGQGFEWMGGIIPIYGITDYAQKFQGRVTITTDESTSTAYMELSSLTSEDTAVYYCARDDTARRVRGVPYYYYYAMDVWGQGTTVTVSS
VL: EIVLTQSPGTLSLSPGERATLSCRASQSVSSYLAWYQQKPGQAPRLLIYDASNRATGIPARFSGSGSGTDFTLTISSLQSEDFAVYYCQQYDDWPQTFGQGTRLEIKR
B17: CPA.7.033 human IgG1 (antibody, V domains shown)
VH: QVQLVQSGAEVKKPGSSVKVSCKASGGTFSSSAISWVRQAPGQGFEWMGGIIPIYGITDYAQKFQGRVTITTDESTSTAYMELSSLTSEDTAVYYCARDDTARRVRGVPYYYYYAMDVWGQGTTVTVSS
VL: ETTLTQSPAFMSATPGDEVNISCKASQDIDDDVSWYQQKPGGAPIFLIQEASTLVPGIPPRFSGSGFGTDFTLTIKNMESEDAAYYFCLQHDNLPLTFGGGTKVDIKR
B18: CPA.7.012 human IgG1 (antibody, V domains shown)
VH: EVQLVETGGGLIQPGRSLRLSCAASGFTFSSYAMHWVRQAPGKGLEWVAVISYDGSNKYYADSVKGRFTISRDNSKNTLYLQMNSLRAEDTAVYYCARDVMVYCSSTSCYFYGMDVWGQGTTVTVSS
VL: DIQMTQSPSSLSASVGDRVTVTCQASQDIRDYLNWYQKKPGKAPKLLIYDASNLEAGVPSRFSGSGSGTDFTFTISGLQPEDVATYYCQQFENLPITFGQGTRLEIKR

The binders below were run against T1, human PVRIG (Poliovirus Receptor …) (assay: FACS dose titration on PVRIG over-expressing HEK293 cells).
Method: FACS screening of the reformatted antibodies was done similarly to the PPE based screen described herein, except that a dose-dependent titration of the purified antibodies was performed. The human PVRIG over-expressing HEK293 cells, or the un-transfected HEK293 cells, were incubated with varying concentrations (0-10 μg/ml) of the anti PVRIG antibodies or isotype controls in FACS buffer at 4° C. for 60 mins. […] Cells were washed twice and re-suspended in a final volume of 80 μl of FACS buffer and Propidium Iodide (Biolegend cat #421301) diluted 1:1000. Samples were analyzed using an Intellicyt HTFC screening system (Intellicyt). Data was analyzed using FlowJo (DeNovo), exported to Excel (Microsoft) and plotted in GraphPad Prism (GraphPad Software, Inc.).
All unique ELISA and FACS binders were reformatted for expression as human IgG1 molecules in Expi293 cells. […] These reformatted antibodies were tested for retained binding to PVRIG over-expressing HEK293 cells alongside an irrelevant human IgG1 isotype control. All antibodies were also tested against un-transfected HEK293 cells.

First: B1
Second: B2
The Kd of the first is 2.4-fold higher: 21.9 nM for the first, 9.29 nM for the second. The second binds more tightly here.

First: B3
Second: B4
The Kd of the first is 7.8-fold higher: 14.2 nM for the first, 1.82 nM for the second.

First: B5
Second: B6
The Kd of the first is 3-fold lower: 0.45 nM for the first, 1.34 nM for the second.

First: B7
Second: B8
The Kd of the first is 1.5-fold lower: 21.7 nM for the first, 33 nM for the second.

Compared with B9, B10 is 2.2-fold higher in Kd: 4.17 nM for the first, 9.08 nM for the second.

Compared with B11, B12 is 2-fold higher in Kd: 2.04 nM for the first, 4.08 nM for the second.

First: B13
Second: B14
The Kd of the first is 12-fold higher: 66 nM for the first, 5.36 nM for the second. The second binds more tightly here.

First: B15
Second: B16
The Kd of the first is 28-fold lower: 0.79 nM for the first, 22 nM for the second. The first binds more tightly here.

Compared with B17, B18 is 43-fold lower in Kd: 12.8 nM for the first, 0.3 nM for the second.
